Among the data in PMC6323120 are stoichiometry N values, retold here.

In general, stoichiometry N refers to the number of molecules, sites or subunits per partner or assembly.

For the assay, the target named is T1, TNFR1, P19438.
T1 chain: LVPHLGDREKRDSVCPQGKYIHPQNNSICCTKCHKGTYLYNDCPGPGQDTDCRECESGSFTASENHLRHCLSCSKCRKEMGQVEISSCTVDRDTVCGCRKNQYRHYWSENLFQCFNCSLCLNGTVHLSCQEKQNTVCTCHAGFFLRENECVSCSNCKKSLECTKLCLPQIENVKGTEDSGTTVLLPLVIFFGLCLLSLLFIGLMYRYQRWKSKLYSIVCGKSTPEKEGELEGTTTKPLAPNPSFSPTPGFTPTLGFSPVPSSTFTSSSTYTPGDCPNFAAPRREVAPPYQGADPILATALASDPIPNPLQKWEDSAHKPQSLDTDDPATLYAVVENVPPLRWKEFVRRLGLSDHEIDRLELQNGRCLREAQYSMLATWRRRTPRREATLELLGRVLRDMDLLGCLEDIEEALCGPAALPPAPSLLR
Nature of the assay: quantitative single-molecule localization microscopy (dSTORM/PALM); TNFR1 in the plasma membrane at physiological cell surface expression levels, upon TNF binding. As to conditions: remark: other sources report otherwise.

B1: TNFR1, P19438 30-455 (receptor)
chain: LVPHLGDREKRDSVCPQGKYIHPQNNSICCTKCHKGTYLYNDCPGPGQDTDCRECESGSFTASENHLRHCLSCSKCRKEMGQVEISSCTVDRDTVCGCRKNQYRHYWSENLFQCFNCSLCLNGTVHLSCQEKQNTVCTCHAGFFLRENECVSCSNCKKSLECTKLCLPQIENVKGTEDSGTTVLLPLVIFFGLCLLSLLFIGLMYRYQRWKSKLYSIVCGKSTPEKEGELEGTTTKPLAPNPSFSPTPGFTPTLGFSPVPSSTFTSSSTYTPGDCPNFAAPRREVAPPYQGADPILATALASDPIPNPLQKWEDSAHKPQSLDTDDPATLYAVVENVPPLRWKEFVRRLGLSDHEIDRLELQNGRCLREAQYSMLATWRRRTPRREATLELLGRVLRDMDLLGCLEDIEEALCGPAALPPAPSLLR
Consider B1, for which the stoichiometry N was more than 3.
